Source: US10654893B2, “Self-assembling peptide compositions” (3-D MATRIX, LTD., priority 2014, dated 2020)

Legend:
Format in all cases: physicochemical
[1] = Mixing of RADA16 with DMEM and centrifugation
Experimental: When the mixture was centrifuged at 2500 rpm for 5 min, phase separation of cloudy RADA16 (SEQ ID NO:1) precipitated from the mixture. In this case, the peptide assemblies (i.e. initially were formed via hydrophobic interactions) were likely broken down during the mixing process. Attractive charge-charge interactions were dominant over hydrophobic interactions, which induce formation of random intra- and inter-molecular aggregates. The phase separation is illustrated in FIG. 7.

[2] = Visual observation of peptide compositions with selected salts (cloud point, critical ionic strength); details: for Observation: room temperature; for Conc. at cloud point / Ionic strength at cloud point: visual observation of solubility
Experimental: Visual observations of RADA16 (SEQ ID NO:1), KLD12 (SEQ ID NO:2), and IEIK13 (SEQ ID NO:3) compositions with selected salts (e.g. KCl, MgCl2, CaCl2) are summarized in Tables 7-9. […] Apparent stiffness of RADA16 (SEQ ID NO:1), KLD12 (SEQ ID NO:2) and IEIK13 (SEQ ID NO:3) compositions was increased with increased ionic strength.
Critical ion strengths were determined from the visual observations recorded in Tables 7-9. When the ionic strengths of peptide compositions were higher than 0.9 M (RADA16 (SEQ ID NO:1)), 0.3 M (KLD12 (SEQ ID NO:2)) or 0.03 M (IEIK13 (SEQ ID NO:3)), the peptide compositions began phase separation. 0.9 M, 0.3 M and 0.03 M may represent critical ion strengths for RADA16 (SEQ ID NO:1), KLD12 (SEQ ID NO:2) and IEIK13 (SEQ ID NO:3), respectively.

[3] = Stiffness and reversibility of RADA16 compositions with salts
Experimental: FIGS. 41A-41D depict the protocol used to follow peptide dissolution and to assess effects of particular anions and/or cations, and/or their concentration, on certain RADA16 (SEQ ID NO:1) compositions. As shown, peptide powder in a vial was dissolved in deionized water with vortexing and sonication. The particular peptide composition utilized in this Example was a 1% composition of RADA16 (SEQ ID NO:1) that was mixed at a 1:1 ratio with a 2× salt solution to obtain a final concentration of 0.5% RADA16 (SEQ ID NO:1) and the desired molar concentration of salt.
The protocol depicted in FIGS. 41A-41D was followed to analyze stiffness of peptide compositions containing either 2.5% RADA16 (SEQ ID NO:1) and no added salt or 2.5% RADA16 (SEQ ID NO:1) and 0.125 M CaCl2. Results are shown in FIG. 44, which provides a basic understanding of the viscoelastic properties of the resulting compositions.
The protocol depicted in FIGS. 41A-41D was followed to prepare solutions of 0.5% RADA16 mixed with 0.125, 0.25, or 0.5 M CaCl2 were prepared. The compositions were subjected to mechanical stress through vortexing and sonication, so that their structure was thoroughly disrupted (e.g., randomized). Disrupted compositions were then placed at room temperature for 48 hours to allow self-assembly to take place.

[4] = Time sweep test of gelation after adding DMEM or saline buffer
Experimental: FIG. 25 includes 1.5% IEIK13 (SEQ ID NO:3) data at pH 2.3, 2.6, 2.9 and 3.2. Time sweep tests were performed at 1 rad/sec and at 1 Pa with 20 mm plates and 500 μm gap distance. During time sweep tests, DMEM was added into the chamber surrounding the measuring plates to soak the peptides at time=0.
Time sweep tests were performed at 1 rad/sec and at 1 Pa with 20 mm plates and 500 μm gap distance. During time sweep tests, the saline buffer was added into the chamber surrounding the measuring plates to soak the peptides at time=0.

In the case of “Arg-Ala-Asp-Ala-Arg-Ala-Asp-Ala-Arg-Ala-Asp-Ala-Arg-Ala-Asp-Ala [RADA16]”, the “Appearance after mixing with DMEM” value ([1]; 0.5 mL of DMEM mixed with 0.5 mL of 2% RADA16) is reported as “cloudy and runny emulsions”, the “Phase behaviour after centrifugation of the DMEM mixture” value ([1]; centrifuged at 2500 rpm for 5 min) is reported as “precipitated” and the Observation ([2]; RADA16 0.5%, DPBS (pH 3.2) 1.0 M, ionic strength 1.0 M) is reported as “Cloudy, phase-separated”. For the same substance, the Observation ([2]; RADA16 0.55%, DPBS (pH 3.2) 0.95 M, ionic strength 0.95 M) was “Slightly cloudy, brittle gel”, the Observation ([2]; RADA16 0.6%, DPBS (pH 3.2) 0.9 M, ionic strength 0.9 M) was “Clear, thick, stiffer gel” and the Observation ([2]; RADA16 0.75%, DPBS (pH 3.2) 0.75 M, ionic strength 0.75 M) was “Clear, thick, stiffer gel”. The Observation ([2]; RADA16 0.9%, DPBS (pH 3.2) 0.6 M, ionic strength 0.6 M) was “Clear, thick, stiffer gel”, the Observation ([2]; RADA16 0.93%, KCl 1.15 M, ionic strength 1.15 M) was “Cloudy, phase-separated” and the Observation ([2]; RADA16 0.95%, KCl 1.1 M, ionic strength 1.1 M) was “Slightly cloudy, brittle gel”. The Observation ([2]; RADA16 0.98%, KCl 1.05 M, ionic strength 1.05 M) was “Slightly cloudy, thick,”, the Observation ([2]; RADA16 1.0%, KCl 1.0 M, ionic strength 1.0 M) was “Clear, thick, stiffer gel” and the Observation ([2]; RADA16 1.0%, NaCl 1.0 M, ionic strength 1.0 M) was “Cloudy, phase-separated”. For the same substance, the Observation ([2]; RADA16 1.03%, KCl 0.95 M, ionic strength 0.95 M) was “Clear, thick, stiffer gel”, the Observation ([2]; RADA16 1.03%, NaCl 0.95 M, ionic strength 0.95 M) was “Cloudy, phase-separated” and the Observation ([2]; RADA16 1.05%, DPBS (pH 3.2) 0.45 M, ionic strength 0.45 M) was “Clear, thick, stiffer gel”. The Observation ([2]; RADA16 1.05%, KCl 0.9 M, ionic strength 0.9 M) was “Clear, thick, stiffer gel”, the Observation ([2]; RADA16 1.05%, NaCl 0.9 M, ionic strength 0.9 M) was “Slightly cloudy, brittle gel” and the Observation ([2]; RADA16 1.08%, NaCl 0.85 M, ionic strength 0.85 M) was “Clear, thick, stiffer gel”. For the same substance, the Observation ([2]; RADA16 1.10%, NaCl 0.8 M, ionic strength 0.8 M) was “Clear, thick, stiffer gel”, the Observation ([2]; RADA16 1.13%, KCl 0.75 M, ionic strength 0.75 M) was “Clear, thick, stiffer gel” and the Observation ([2]; RADA16 1.13%, NaCl 0.75 M, ionic strength 0.75 M) was “Clear, thick, stiffer gel”. For the same substance, the Observation ([2]; RADA16 1.2%, DPBS (pH 3.2) 0.3 M, ionic strength 0.3 M) was “Clear, thick, stiffer gel”, the Observation ([2]; RADA16 1.2%, KCl 0.6 M, ionic strength 0.6 M) was “Clear, thick, stiffer gel” and the Observation ([2]; RADA16 1.2%, NaCl 0.6 M, ionic strength 0.6 M) was “Clear, thick, stiffer gel”. The Observation ([2]; RADA16 1.27%, KCl 0.45 M, ionic strength 0.45 M) was “Clear, thick, stiffer gel”, the Observation ([2]; RADA16 1.27%, NaCl 0.45 M, ionic strength 0.45 M) was “Clear, thick, stiffer gel” and the Observation ([2]; RADA16 1.28%, CaCl2 0.433 M, ionic strength 1.3 M) was “Cloudy, phase-separated”. The Observation ([2]; RADA16 1.28%, MgCl2 0.433 M, ionic strength 1.3 M) was “Cloudy, phase-separated”, the Observation ([2]; RADA16 1.29%, CaCl2 0.417 M, ionic strength 1.25 M) was “Slightly cloudy, brittle gel” and the Observation ([2]; RADA16 1.29%, MgCl2 0.417 M, ionic strength 1.25 M) was “Slightly cloudy, brittle gel”. For the same substance, the Observation ([2]; RADA16 1.3%, CaCl2 0.4 M, ionic strength 1.2 M) was “Slightly cloudy, thick,”, the Observation ([2]; RADA16 1.3%, MgCl2 0.4 M, ionic strength 1.2 M) was “Slightly cloudy, thick,” and the Observation ([2]; RADA16 1.31%, CaCl2 0.383 M, ionic strength 1.15 M) was “Clear, thick, stiffer gel”. For the same substance, the Observation ([2]; RADA16 1.31%, MgCl2 0.383 M, ionic strength 1.15 M) was “Clear, thick, stiffer gel”, the Observation ([2]; RADA16 1.32%, CaCl2 0.35 M, ionic strength 1.05 M) was “Clear, thick, stiffer gel” and the Observation ([2]; RADA16 1.32%, MgCl2 0.35 M, ionic strength 1.05 M) was “Clear, thick, stiffer gel”. The Observation ([2]; RADA16 1.35%, CaCl2 0.3 M, ionic strength 0.9 M) was “Clear, thick, stiffer gel”, the Observation ([2]; RADA16 1.35%, DPBS (pH 3.2) 0.15 M, ionic strength 0.15 M) was “Clear, thick, stiffer gel” and the Observation ([2]; RADA16 1.35%, KCl 0.3 M, ionic strength 0.3 M) was “Clear, thick, stiffer gel”. The Observation ([2]; RADA16 1.35%, MgCl2 0.3 M, ionic strength 0.9 M) was “Clear, thick, stiffer gel”, the Observation ([2]; RADA16 1.35%, NaCl 0.3 M, ionic strength 0.3 M) was “Clear, thick, stiffer gel” and the Observation ([2]; RADA16 1.38%, CaCl2 0.25 M, ionic strength 0.75 M) was “Clear, thick, stiffer gel”. For the same substance, the Observation ([2]; RADA16 1.38%, MgCl2 0.25 M, ionic strength 0.75 M) was “Clear, thick, stiffer gel”, the Observation ([2]; RADA16 1.4%, CaCl2 0.2 M, ionic strength 0.6 M) was “Clear, thick, stiffer gel” and the Observation ([2]; RADA16 1.4%, MgCl2 0.2 M, ionic strength 0.6 M) was “Clear, thick, stiffer gel”. For the same substance, the Observation ([2]; RADA16 1.43%, CaCl2 0.15 M, ionic strength 0.45 M) was “Clear, thick, stiffer gel”, the Observation ([2]; RADA16 1.43%, KCl 0.15 M, ionic strength 0.15 M) was “Clear, thick, stiffer gel” and the Observation ([2]; RADA16 1.43%, MgCl2 0.15 M, ionic strength 0.45 M) was “Clear, thick, stiffer gel”. The Observation ([2]; RADA16 1.43%, NaCl 0.15 M, ionic strength 0.15 M) was “Clear, thick, stiffer gel”, the Observation ([2]; RADA16 1.45%, CaCl2 0.1 M, ionic strength 0.3 M) was “Clear, thick, stiffer gel” and the Observation ([2]; RADA16 1.45%, MgCl2 0.1 M, ionic strength 0.3 M) was “Clear, thick, stiffer gel”. For the same substance, the Observation ([2]; RADA16 1.48%, CaCl2 0.05 M, ionic strength 0.15 M) was “Clear, thick, stiffer gel”, the Observation ([2]; RADA16 1.48%, MgCl2 0.05 M, ionic strength 0.15 M) was “Clear, thick, stiffer gel” and the Observation ([2]; RADA16 1.5%, CaCl2 0 M, ionic strength 0 M) was “Clear, thick gel”. The Observation ([2]; RADA16 1.5%, DPBS (pH 3.2) 0 M, ionic strength 0 M) was “Clear, thick gel”, the Observation ([2]; RADA16 1.5%, KCl 0 M, ionic strength 0 M) was “Clear, thick gel” and the Observation ([2]; RADA16 1.5%, MgCl2 0 M, ionic strength 0 M) was “Clear, thick gel”. For the same substance, the Observation ([2]; RADA16 1.5%, NaCl 0 M, ionic strength 0 M) was “Clear, thick gel”, the “Ionic strength range that did not noticeably change the opacity of compositions” value ([2]; approximately, depending on salt identities) was 0.85˜1.15 M and the “Critical ion strength (above it compositions began phase separation)” value ([2]; from visual observations of Tables 7-9) was 0.9 M. The “Critical ionic strength (when the composition becomes cloudy)” value ([2]; range over salts) was 0.9˜1.2 M, the “Conc. at cloud point” value ([2]; salt CaCl2) was 0.383~0.4 M and the “Ionic strength at cloud point” value ([2]; salt CaCl2) was 1.15~1.2 M. The “Conc. at cloud point” value ([2]; salt DPBS (pH 3.2)) was 0.9~0.95 M, the “Ionic strength at cloud point” value ([2]; salt DPBS (pH 3.2)) was 0.9~0.95 M and the “Conc. at cloud point” value ([2]; salt KCl) was 1.0~1.05 M. The “Ionic strength at cloud point” value ([2]; salt KCl) was 1.0~1.05 M, the “Conc. at cloud point” value ([2]; salt MgCl2) was 0.383~0.4 M and the “Ionic strength at cloud point” value ([2]; salt MgCl2) was 1.15~1.2 M. For the same substance, the “Conc. at cloud point” value ([2]; salt NaCl) was 0.85~0.9 M, the “Ionic strength at cloud point” value ([2]; salt NaCl) was 0.85~0.9 M and the “Reversibility after mechanical perturbation” value ([3]; 0.5% RADA16, 0.125 or 0.25 M CaCl2, vortexing and sonication, 48 hours at room temperature) was “reversibility can be maintained”. The Stiffness after disruption ([3]; 0.5% RADA16, 0.5 M CaCl2, vortexing and sonication, 48 hours at room temperature) was “dramatically less stiffness”, the “Stiffness with salt versus no added salt” value ([3]; 2.5% RADA16 and 0.125 M CaCl2 versus 2.5% RADA16) was “noticeable increase in stiffness” and the “Gelation on exposure to saline buffer” value ([4]; saline buffer, 0.15 M NaCl) was “no or negligible gelation”. The “Storage modulus response (gelation kinetics)” value ([4]; with pH adjustment, time sweep with DMEM (FIGS. 24 and 25)) was “immediate storage modulus increase” and the “Time without storage modulus increase” value ([4]; without pH adjustment (pH 2.2), time sweep with DMEM (FIG. 24)) was 13 s.
